One molecule from paper PMC8217354 can be followed below.

The target in the data set is T1, N-SpTad2 (Schizosaccharomyces pombe, UniProt O94642 1-202).
T1 sequence: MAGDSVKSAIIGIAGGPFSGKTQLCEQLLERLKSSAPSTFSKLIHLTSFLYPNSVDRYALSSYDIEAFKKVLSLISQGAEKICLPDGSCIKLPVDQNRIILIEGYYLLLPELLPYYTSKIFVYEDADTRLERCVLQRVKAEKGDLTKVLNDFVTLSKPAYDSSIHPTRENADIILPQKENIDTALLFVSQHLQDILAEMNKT
Briefly: EMSA.

B1: tRNAAla (structured_RNA)
RNA: GGGCGUGUGGCGUAGUCGGUAGCGCGCUCCCUUAGCAUGGGAGAGGUCUCCGGUUCGAUUCCGGACUCGUCCACC
As for B1, the binding result is recorded as “no binding”.
